Assay: yeast display, Sf9 membrane polyspecificity reagent, FACS + sequencing; frameworks hold sequencing errors
Method in brief: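 After 36–48 hours of galactose induction, yeast (Saccharomyces cerevisiae BJ5465) displaying a synthetic nanobody library were stained at 4 °C for 1 hour with 10% biotinylated, detergent-solubilized Sf9 membrane reagent. Streptavidin microbeads enriched the stained cells before FACS sorting into low and high (top ~1%) gates on anti-HA and streptavidin fluorescence. Each clone's polyreactivity label reflects its gate of origin.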

Sequence: QVQLVESGGGLVQAGGSLRLSCAASGRTFFSYAMGWYRQAPGKERELVAAISRRGSSTYYADSVKGRFTISRDNAKNTVYLQMNSLKPEDTAVYYCAADVVRGSRYNRYGYWGQGTQVTVSS
- polyreactivity (PSR sort gate): high polyreactivity

Sequence: QVQLVESGGGLVQAGGSLRLSCAASGRTFFSYAMGWYRQAPGKERELVAAISWSGGTTYYADSVKGRFTISRDNAKNTVYLQMNSLKPEDTAVYYCAAYVYQEGYRYYYWGQGTQVTVSS
- polyreactivity (PSR sort gate): high polyreactivity

Sequence: QVQLVESGGGLVQAGGSLRLSCAASGRTFFTYAMGWYRQAPGKERELVASITRSGVSTYYADSVKGRFTISRDNAKNTVYFQMNSLKPEDTAVYYCNTRYPYYWPIYGYWGQGTQVTVSS
- polyreactivity (PSR sort gate): high polyreactivity

Sequence: QVQLVESGGGLVQAGGSLRLSCAASGRTFFVNAMGWYRQAPGKERELVATITFSGDSTYYADSVKGRFSISRDNAKNTVYLQMNSLKPEDTAVYYCAAYQGQKGYDYWGQGTQVTVSS
- polyreactivity (PSR sort gate): high polyreactivity

Sequence: QVQLVESGGGLVQAGGSLRLSCAASGRTFFWNDMGWYRPAPGKERELVAAITWSGGSTYYADSVKGRFTISRDNAKNTVYLQMNSLKPEDTAVYYCDAVVSDYVWRYEYWGQGTQVTVSS
- polyreactivity (PSR sort gate): low polyreactivity

Sequence: QVQLVESGGGLVQAGGSLRLSCAASGRTFFYYAMGWYRQAPGKERELVAAISTNGGSTYYADSVKGRFTISRDNAKNTVYLQMNSLKPEDTAVYYCNTYATPHRSGGGLGGHYYWGQGTQVTVSS
- polyreactivity (PSR sort gate): low polyreactivity

Sequence: QVQLVESGGGLVQAGGSLRLSCAASGRTFFYYSMGWYIQAPGKEREFVSGISKSGSSTYYADSVKGRFTISRDNPKNTVYLQLISLKPEDTADSYCAAVSKRGAGGRRTEYWGQGTQVTVSA
- polyreactivity (PSR sort gate): high polyreactivity

Sequence: QVQLVESGGGLVQAGGSLRLSCAASGRTFFYYTMGWYRQAPGKERELVAAITGSGTRTYYADSVKGRFTISRDNAKNTVYYQMNSLKPEDTAVYYCAAGYSDFSGQQVYYWGQGTQVTVSS
- polyreactivity (PSR sort gate): high polyreactivity

Sequence: QVQLVESGGGLVQAGGSLRLSCAASGRTFGAYAMGWYRQAPGTERELVAAISSSGGSTYYADSVKGRFTISRDNAKNTVYLQMNSLKPEDTAVYYCAKGWHRGVGFGYWGQGTQVTVSS
- polyreactivity (PSR sort gate): high polyreactivity

Sequence: QVQLVESGGGLVQAGGSLRLSCAASGRTFGDYAMGWYRQAPGKERELVAAISGTGGSTYYADSVKGRFTISRDNAKNTVYLQMNSLKPEDTAVYYCAARLKYIRFYYWGQGTQVTVSS
- polyreactivity (PSR sort gate): high polyreactivity

Sequence: QVQLVESGGGLVQAGGSLRLSCAASGRTFGDYAMGWYRQAPGKERELVAAISSSGGRTYYADSVKGRFTISRDNAKNTVYLQMNSLKPEDTAVYYCATDYLYVYGFEYYYWGQGTQVTVSS
- polyreactivity (PSR sort gate): high polyreactivity

Sequence: QVQLVESGGGLVQAGGSLRLSCAASGRTFGFNVMGWYRQAPGKERELVAAISRSGGSTYYADSVKGRFTISRDNAKNTVYLQMNRLKPEDTAVYYCNKRYVHRYGYWGPGTQVTVSS
- polyreactivity (PSR sort gate): low polyreactivity

Sequence: QVQLVESGGGLVQAGGSLRLSCAASGRTFGFNVMGWYRQAPGKERELVAAISWSGGSTYYADSVKGRFTISRDNAKNTVYLQLNSLKPADTAVYYCNKRYVHRYGYWGQGTQVTVSS
- polyreactivity (PSR sort gate): low polyreactivity

Sequence: QVQLVESGGGLVQAGGSLRLSCAASGRTFGFYDMGWYRQAPGKERELVAAIRGSIGYTYYADSVKGRITISRDNAKNTVYLQMTSLKPEDTAVYYCAKAIRYPAAKFYWGQGSQVTVSS
- polyreactivity (PSR sort gate): high polyreactivity

Sequence: QVQLVESGGGLVQAGGSLRLSCAASGRTFGGNAMGWNRHAPGKERELVAGINISGGSTNYADSVKGRYTISRDNAKNTVYLQMNSLKPEDSAVYYCNADTAVYAWDDDYWGQGTQVTVSS
- polyreactivity (PSR sort gate): low polyreactivity

Sequence: QVQLVESGGGLVQAGGSLRLSCAASGRTFGGNAMGWYRQAPGKERELVAAISRSGGRTYYADSVKGRFTISRDNAKNTVYLQMNSLKPEDTAVYYCAAKYQYTQYDYWGQGTQVTVSS
- polyreactivity (PSR sort gate): high polyreactivity

Sequence: QVQLVESGGGLVQAGGSLRLSCAASGRTFGGNSMGWYRQAPAKERELVAAISRGGSTKYADSVKGRFTISRDNAKNTVYLQMNSLKPEDTAVYYCAASPKFHYDYWGQGTQVTVSS
- polyreactivity (PSR sort gate): low polyreactivity

Sequence: QVQLVESGGGLVQAGGSLRLSCAASGRTFGGYAMGWYRQAPGKERELVAAIRSRGGRTYYADSVKGRFTISRDNAKNTVYLQMNSLKPEDTAVYYCATYGNKWGEDYWGQGTQVTVSS
- polyreactivity (PSR sort gate): high polyreactivity

Sequence: QVQLVESGGGLVQAGGSLRLSCAASGRTFGGYAMGWYRQAPGKETQLVATITSGGSTYYADSVKGRFTISRDNAKNTVYLQMTSLKPEDTAVYYCAADTYFETSTRAIPSNDYWGQGTQVTVSS
- polyreactivity (PSR sort gate): low polyreactivity

Sequence: QVQLVESGGGLVQAGGSLRLSCAASGRTFGGYDMGWYRQAPGKERELVAAISSGGRTYYADSVKGRFTISRDNAKNSVYLQMNSLKPEDTAVYYCAAKYRKWPIDYWGQGTQVTVSS
- polyreactivity (PSR sort gate): high polyreactivity

Sequence: QVQLVESGGGLVQAGGSLRLSCAASGRTFGGYTMGWYRQATGKEMELVAAITGSGSNTYYADSVKGRFTISRDNAKNTVYLQMNSLKPEDTAVYYCAAPYSYRTWYPYGYWGQGTQVTVSS
- polyreactivity (PSR sort gate): high polyreactivity

Sequence: QVQLVESGGGLVQAGGSLRLSCAASGRTFGGYVMGWYRQAPGKERELVATITYSGGSTHYADSVKGRFTISRDNAKNTVYLQINSLKPEDTAVYYCARRRSYRYPSEYNYWGQGTQVTVSS
- polyreactivity (PSR sort gate): high polyreactivity

Sequence: QVQLVESGGGLVQAGGSLRLSCAASGRTFGINAMGWYRQAPGKDRELVAAIRTGGSTYYADSVKGRFTISRDNAMNTVYLQMNSLKPEDTAVYYCAAKAYRRYTIPPYGYWGQGTQVTVSS
- polyreactivity (PSR sort gate): high polyreactivity

Sequence: QVQLVESGGGLVQAGGSLRLSCAASGRTFGINAMGWYRQAPGKERELVAVISFADGGTYYADSVKGRFTISRDNAKNTVYLQMNSLKPEDTAVYYCATDYQSTSVWGGHFVINPYDYWGLGTQVTVSS
- polyreactivity (PSR sort gate): low polyreactivity

Sequence: QVQLVESGGGLVQAGGSLRLSCAASGRTFGINAMGWYRQAPGKETELVAVISFGDGGTYYADSVKGRFTISRDNAKNTVYLQMNSLTPEDTAVYYCATDYQSTSVWGGHFVINPYDYWGQGTQVTVSS
- polyreactivity (PSR sort gate): low polyreactivity

Sequence: QVQLVESGGGLVQAGGSLRLSCAASGRTFGIYAMGWYRQAPGKERELVAAISRGGNTYADSVKGRFTISRDNAKNSVYLQMNSLKPEDTAVYYCAADRRYRPGDYWGQGTQVTVSS
- polyreactivity (PSR sort gate): high polyreactivity

Sequence: QVQLVESGGGLVQAGGSLRLSCAASGRTFGIYAMGWYRQAPGKERELVASISWSGGRTYYADSVKGRFTISRDNAKNTVYLQMNSLKPEDTAVYYCAAYGVYYPRSWQYFDWYGYWGQGTQVTVSS
- polyreactivity (PSR sort gate): high polyreactivity

Sequence: QVQLVESGGGLVQAGGSLRLSCAASGRTFGKNAMGWYRQAPGKERELVAAISGSGGSTYYADSVKGRFTISRDNAKNTVSLQMNSLKPEDTADYYCAKSYYGKYYPSDYWGQGTQVTVSS
- polyreactivity (PSR sort gate): low polyreactivity

Sequence: QVQLVESGGGLVQAGGSLRLSCAASGRTFGKYAMGWYRQAPGKERELVAAITTRVVITYYADSVKGRFTISRDTAKNTVYLQMNSLKPEDTAVYYCAADPEKIYRPFNHYYYWGQGTQVTVSS
- polyreactivity (PSR sort gate): low polyreactivity

Sequence: QVQLVESGGGLVQAGGSLRLSCAASGRTFGKYAMGWYRQAPRKEREFFAAISRSGGNTYYADTVKGRFTISRDNAKNTVYLQMTSLIPEDTAVYYCARGLSTYVLSHGLEYRTYFYWGQGTQVTVSS
- polyreactivity (PSR sort gate): high polyreactivity

Sequence: QVQLVESGGGLVQAGGSLRLSCAASGRTFGKYAMGWYSQAPGKERELVAAISSGGTTYYADSVKGRFTISRDNAKNTVYLQMNSVIPEDTAVYYCAADPRYPYNYWGQGTQVTVSS
- polyreactivity (PSR sort gate): low polyreactivity

Sequence: QVQLVESGGGLVQAGGSLRLSCAASGRTFGLNAMGWYRQAPGKERELVAAITYSGGSTYYADSVKGRFTISRDNAKNTVYLQMNSLKPEDTAVYYCAKEVQTYWYHYYYWGQGTQVTVSS
- polyreactivity (PSR sort gate): high polyreactivity

Sequence: QVQLVESGGGLVQAGGSLRLSCAASGRTFGLNAMGWYRQAPGKERELVAVITSSGGSTYYADSVKGRFTISRDNAKNTVYLQMNSLKPEDTAVYYCAARPPYTDSSPGERTYDYWGQGTQVTVSS
- polyreactivity (PSR sort gate): low polyreactivity

Sequence: QVQLVESGGGLVQAGGSLRLSCAASGRTFGLNVMGWYRQAPGKERELVATISGVGSTNYADSVKGRFTISRDNAKNTVYLQMNSLKPEDTAVYYCDKDPHVGRWWDLYSPYYSWGQGTQVTVSS
- polyreactivity (PSR sort gate): low polyreactivity

Sequence: QVQLVESGGGLVQAGGSLRLSCAASGRTFGLNVMGWYRQAPGKERELVATISWSGGTTYYADSVKGRFTISRDYAKNTVYLQMNSLKPEDTAVYYCNRQVTWYPTGGFWGQGTQVTVSS
- polyreactivity (PSR sort gate): low polyreactivity

Sequence: QVQLVESGGGLVQAGGSLRLSCAASGRTFGLYAMGWYRQAPGKERELVAAISSGDSTNYADSVKGRFTISRDNAKNTVYLQMNSLKPEDTAVYYCAAAQQRWWQWYYYWGQGTQVTVSS
- polyreactivity (PSR sort gate): high polyreactivity

Sequence: QVQLVESGGGLVQAGGSLRLSCAASGRTFGLYAMGWYRQAPGKERELVAAISYSGGRTYYADSVKGRFTISRDNAKKTVYLQMNILKPEDTAVYYCNKAWFRYYYYRFDYWGLGTQVTVSS
- polyreactivity (PSR sort gate): high polyreactivity

Sequence: QVQLVESGGGLVQAGGSLRLSCAASGRTFGPNVMGWYRQAPGKERELVAAITYSSASTYYADSVKGRFTISRDNAKNTVYLQMNSLKPEDTAVYYCAARDRYYFGGMYYWGQGTQVTVSS
- polyreactivity (PSR sort gate): low polyreactivity

Sequence: QVQLVESGGGLVQAGGSLRLSCAASGRTFGPYAMGWSRQAPGKEREFVAAISYSGGSTYYADSVKGRFTISRDNAKNTVYFQITSLKPEDTAVYYCAVDIDSNSGTRDYWGQGTQVTVSS
- polyreactivity (PSR sort gate): low polyreactivity

Sequence: QVQLVESGGGLVQAGGSLRLSCAASGRTFGPYAMGWYRQAPGKERELVAAIRYIDDSTFYADSVKGRFTISRDNAKNTVYLQMNSLKPEDTAVYYCAAQRRVVGRHGLSLIRYDYWGQGTQVTVSS
- polyreactivity (PSR sort gate): low polyreactivity

Sequence: QVQLVESGGGLVQAGGSLRLSCAASGRTFGPYAMGWYRQAPGKERELVAAITDTGSGTYYADSVKGRFTISRDNAKNTVYIQMNSLKPEDTAVFYCNANYLSWYRYKYNYWGQGTQVTVSS
- polyreactivity (PSR sort gate): low polyreactivity

Sequence: QVQLVESGGGLVQAGGSLRLSCAASGRTFGQNAMGWYRQAPGKERELVAAISASGSNTYYADSVKGRFTISRDNAKNTVYVQMNSLKPEDTAVYYCAKQVYRPGQQSRYDYWGQGTQVTVSS
- polyreactivity (PSR sort gate): low polyreactivity

Sequence: QVQLVESGGGLVQAGGSLRLSCAASGRTFGQYALGGSRKAPGKERELVATITRTARTNYADSVKGRFTISRDNAKNTVYLQMNSLKPEDTAVYYCAKGWPAIYGTYDYCGQGTQVTVSS
- polyreactivity (PSR sort gate): high polyreactivity
